Experimental data from the DeepSol protein solubility set.

Assay: soluble on expression in E. coli; label from the status in PepcDB or PDB records

Soluble on expression in E. coli, not soluble:
MGSDKIHHHHHHMALFEGYERRIDGINTVLKKYGMNSIEDAKKVCDEKGINVYDIVRSIQPICFENACWAYTLGAAIAIKNGCTSASDAAKNIGEGLQAFCIPGSVADDRKVGLGHGNLGAMLLSEDAKCFAFLAGHESFAAAEGAIGIAKSANKVRKEPLRVILNGLGKDAAQIISRINGFTYVQTQFDYYTGELKIVKETAYSKGERAEVRCFGADDVREGVAIMHHEGVDVSITGNSTNPTRFQHPVAGTYKKECFEMGKKYFSVASGGGTGRTLHPDNMAAGPASYGMTDTMGRMHSDAQFAGSSSVPAHVDMMGLIGMGNNPMVGATVAVAVAIEEAMK
MGSDKIHHHHHHMALKEEIYYNSPIFIQNILTSMYGKKLMQERYGPGYEKKLQELRVKDRTVDYRIEQLERLNTFLLFIQEHTPYYRKLFQEHDIRLPFTSLDQLQTIPILEKETLRQQNEAFMSEVDAPVRGRTGGTSGKSLQVAFMREDVQERMAHLDYFKELHGFRSGMRRASFTGRTLTAINQKKPIFWRKNRPLNQLLLSIFHMKEENFPAYIEELNRFRPAALDGTPTAMLEIALYLLKHELRLDFPLVAIFPTSETVTPEMRRLLEEAFQAPVFDQYGSSEGAPIISECRERKLHLHHETGIIEPYGDGGEVVVTCFTTRGTPLVRYRIGDRMTLGQEACTCGLNGPVIESIDGRGTSYIVSEKRGKVFEGDITTIARELPNSVLRLQVEQHELNHVTLRYIPDEQRFVPKHEKILLREMQKLLGSSMKVTLEPVQQMKQEPNGKTLIVKQSMK
MGSDKIHHHHHHMALLEVHNLNKRFTDHISLFHKQRFYAVKNISFNLNEGETIAIIGENGAGKSTLAKMIAGITKPTSGDMFFRYKKLTYGDYQFRTKHIRMMFQDPNHTFNPNHNIGQILDAPLRLATDMNEQERNECIFNTLKLVGMYPEYALIPIKETSTSQKQRIALARALILSPEIIIADDTLSTLDFSVKTQLTNLMLNLQEKLGIAFIYVGQHLGIIKHIADKLIIMHQGEAIEYGDTKEVLLNPQNPITARLIESHFGKMLTEDAWAK
MGSDKIHHHHHHMALLFSGGTMSQVQSGILPEHCRAAIWIEANVKGEVDALRAASKTFADKLATFEAKFPDAHLGAVVAFGNNTWRALSGGVGAEELKDFPGYGKGLAPTTQFDVLIHILSLRHDVNFSVAQAAMEAFGDCIEVKEEIHGFRWVEERDLSGFVDGTENPAGEETRREVAVIKDGVDAGGSYVFVQRWEHNLKQLNRMSVHDQEMVIGRTKEANEEIDGDERPETSHLTRVDLKEDGKGLKIVRQSLPYGTASGTHGLYFCAYCARLHNIEQQLLSMFGDTDGKRDAMLRFTKPVTGGYYFAPSLDKLMAL
MGSDKIHHHHHHMALMTNKTRALLIGGHGKVALLATPMLIDASVQVTSMYRNPDHRSEIEALGATTLERDVTTLSVEDWADLLKDFDVVVWSAGNGGKNGADATYAIDRDAAIASIDGAASLGEKAPRYIMVSYIGSSTHTIDPSASFYPYAESKKAADEHLSSTNLDYLILAPAALTLDEVNGVEVIADTNEAAAGRTTSRVLVAEVITEFVVRDFPQTRVLPFVDGESPVSSIS
MGSDKIHHHHHHMALNLKKLPILFLSDSTTSVAISREAKAGRIRKIGPRLYTSNTSDDPAYIIRQNWLQALTLLFPGCVVSNRTALESRVSPAGRVYVTGDYARTLELHGTKFVQVKGSPPVEGDTPLLGIFMASRARALLENLTPSRERSGGELKNLPREMIERRLAELLNVEKEDSVNRLRDQARQIAPLLGLEKEFDELDDLIGTLLRTRKATLADPVAKAHQLGTPYDPHALERVETLWSVLASMPHNYRPTNAGTGTPFYTVSFFDAYFSNYIEGTRFKVDEAKEIVDSGVIPAIRPADGHDILGTYRVVSSLENMRRTPKNPDEFIELLQSRHADIMVGRPDKRPGEFKEEVNYAGATRFVDPDLVRGTLSQGFSLYKSLEHPFARALLIMFLVAEVHPFDDGNGRAARAMMNSELITAEETRIIIPSVFRNEYVASLKRMTNHLQPESFISVMSFAQEFVSRISFDSYASARVQMEGCNAFDDPADDKRLLQPSIS
MGSDKIHHHHHHMANALLQKWVERAERRALFWWQPKNGGVNMGDHLSKVIVSCVLALQDKTLLEKRDLRKKLIATGSVLHFAKDGDTVWGSGINGKIPAERNTFSTLDVRAVRGPKTRAFLLERGIAVPEVYGDPGLLTPMFFPADALGPVTKRPFAIVPHFNEPVEKYSAYAEHLVFPNVKPATFMSALLGAKFVISSSLHGLILAEAYGIPAVYLDWGNGEDRFKYDDYYHGTRRMQWHAGHSVEECMELGGNGSFDLERLQAGLLAAFPYDLW
MGSDKIHHHHHHMANKIKVLLTGAGSTLGREILAQLLTMRKVFEISVLDIKRGHTMAFFEKYKKEIHIFYGDCSVQDNTVEACKGQDFVIHCQSLEKANADKRLRLAEDVNTMGTRYIIENLERFSPGAYLLYISTVGVYGDRLKAPMISADNMTCPSMGDYDALTKLQAEKLVQESSLEWTIYRPGIILGHDSSLLNSSVFCMPLATRFETVHIRDLASACVKAYDHKASLWGRTYNVGGGEACRIVYSDYIRRLFKLLGLGYPEFPDRAFATRNRFGGYFADGDALEAILHFRRHTIEDYFKELAAQQPILKKLANKIFVGVQRKSLEGKSAPLRAIKENDRAKKKYYF
MGSDKIHHHHHHMANVKWTMKAREFVNCNCAYGCPCQFNAMPTHGFCQAVTGIEIESGHHGATKLDGLRLVGIFRWPGAIHQGGGEAAVVVDERASEAQREALLRILGGQDTKPGATIFEVFSTTLEKFHDPIFAPIEFEVDVDARTGRLHVEGVADGHGEPIKNPVTGAEHRARIDLPHGFEYAMAEIGRGWTKATGPIKFEVADTHSHFANLHLTQSGVVH
MGSDKIHHHHHHMAPEDWLRAQMQGEIVALVHSHPGGLPWLSEADRRLQVQSDLPWWLVCRGTIHKFRCVPHLTGRRFEHGVTDCYTLFRDAYHLAGIEMPDFHRGDDWWRHGQNLYLDNLEATGLYQVPLSSAQPGDVLLCCFGSSVPNHAAIYCGDGELLHHIPEQLSKRERYTDKWQRRTHSLWRHREWHASAFTGICNDLAAASTFV
MGSDKIHHHHHHMAPLAPLALSELGPKLDRSIDPLWISRQSLEAEPNAFKPGCGWLPNDWMPLESIRKALRSATRREDDSLLGYSSPLGLSALRDLLARRAQSKGIEANLNQVLLTDSGTQAIDLVCRFLLKPDDVVLIDDPCYFNFHALLKVHQVKVVGIPYTPNGPDLEAFKEAIESYNPRLYITNSGIHNPTGATLSLSTAHQLLKLIDQSNLIVIEDDIFSDFEYTPAPRLAALDNLSRVIFIGSFSKTLSASIRCGYIIAKPEWIDQIADLKIATSFSHNGLSAKILHTALTDGSYRKHLDLLKVRLAQAMQETIAKLKSIGIEPWIEPKAGIFVWCRLPEGVDAAKIARFCLNRQVILAPGNAFSQAQSAGQFIRFNITQSNHDYIYKTLAEALLQESLEKQV
MGSDKIHHHHHHMARETQCNRQTDCAQCPKATEGILVHRKFPKGQHFPPDKCTQNCILFILQGELLVNSEEYPGTTLREGQFILQSIGSKLELLALTDVNYVVYWFNEPPLICEQRYHEILQQSEAPLTYTPLVMTQRITNFMKDICDYLDEQMPCGAFIDLKCQELMYLIICYYPIPQLSKFFYPISSYTESFQYFVMQNYEKVKNVEEFAHLGGYTTTTFRRLFKNMYGVPVYEWILSKKREGILEDLQHTKQRITEISNRYGFDSLSHFAHFCKASFGDSPRALRTRAARGEKITALKTE
MGSDKIHHHHHHMARSWLDYKTQAWVQWCPGCGDFGILNSIYRAVSELGIDPENLAVVGGIGCSGRTTYYVKGSNFHALHGRAIPVATGVKLANPHLNVIVAGGDGDLMGIGGGHFVALGRRNLNITVLLFDNAVYGLTKGQAAPTLPAWVKTKALSMPNIHDNINPVLLAFAAGYTFIARGYAYHTQQLKELIKTAVRHRGAALVDILQPCPTYNNIMTNKWYEERIYYVDQEEGYDPIIRTPEEFQKKAPAIAAKLMEFGDRIPLGILYWNQTRESFEERLEKIMPGYMSAPPATRRIELEGKPFLHPFDIFKDRLVTP
MGSDKIHHHHHHMARVPRFALVERDSSNHCTWRAHDLEFVFEEPGARDKFLELVGRYKDRYGVEIRSYCLMGTHPHVTCTCRQEQVQFSRFWQVVNGQFARWYNKVRNRRGQVVMERMRTPRIQEGGAHQLTVMRYGDLNPVRAGLVKSPKDWKWSSYRHYAFGEPNPLITDAPEYLALGKTAQERRKAYQALFALPLSESLRTRRVELVSFPFVGDATWVMRRLEAAGLSPPD
MGSDKIHHHHHHMARYTGPLCKLCRREGMKLYLKGERCYTDKCAFDRRPYAPGQHGQRRTKLTQYGIQLRAKQTVKRIYGILERQFERYVEKAMQKAGDTRENLIQILEARLDNVVYRMGFAINRRQARQLVNHGHFLVNGKKVNIPSYLLRPNDVVEVREKSRDLEVIKKAIEANKERSIVPWIEVDYDNYRGTFLRYPSLEEVTDLPVDLQTVIEFYSR
MGSDKIHHHHHHMASFQSFGIPGQLEVIKKALDHVRVGVVITDPALEDNPIVYVNQGFVQMTGYETEEILGKNCRFLQGKHTDPAEVDNIRTALQNKEPVTVQIQNYKKDGTMFWNELNIDPMEIEDKTYFVGIQNDITKQKEYEKLLEDSLTEITALSTPIVPIRNGISALPLVGNLTEERFNSIVCTLTNILSTSKDDYLIIDLSGLAQVNEQTADQIFKLSHLLKLTGTELIITGIKPELAMKMNKLDANFSSLKTYSNVKDAVKVLPIM
MGSDKIHHHHHHMASQRGDTKLQLLRDTSLSHDGLNHTILTLNQLLHQRAPFYGEHLSATTSPTGLSFDEWSCADTYQKLIARFAIAHPSAENQTETKTENETETDKTAATSRTPAFASKSALVSKNAVPSRKDTRKALHSLWGQWYFGLLVPPMMEWIFNAPKTDVETLHWQPQSVFMQVHPSGRVAKFEFKIAKYQPITALTFKKHHGIEPLSRTNTKPSIKIDTEVHSPLSPYKPSVDKELVLQGFILNLLQSSVDRLLTLSPVPAKLYWSHLGYLIHWYLGELGLSQQQNQQLKQALFRRTTFLDGSTNPLYNSINLLIEPEQDSATPYTVARIVTSTASRSKPSPKIHCIRRTCCLRYQLANTGQCHDCPLLSRAKVNVNATKQT
MGSDKIHHHHHHMATELFTWHTLSDTLSDFKSGLSLAQNSGAESLLVLTCSQNNYPEEELNALFHACPLKLFGGIYPMLTLKGDLIKQGALIIGFKEAVDVTLFAQLNQVTNESCLEELITSTLKEKNNFCGQDDFLMFYDALISNIEGFIDCLFEHLDHGINIAGGGAGNLDFIQRHCIFTNSGVHSDAILLVALPRTLNTSVAHGWETFDEPFLVSEAQGQTVQSLNYQPAYEVYCQTIESATEYTFNNTDFFDIAKNFPLGIKDINNNIIVRDPILAKNNHLQCFGNIPINSMVYLLESNIDSLVASTEKAAIALLSKLNKTTITTTMVFDCISRALFMEDEFEKELNVIAEHCHLGALFGVLSLGEIANSQSGAIRLLNKSIVISSW
MGSDKIHHHHHHMATSTTSTPHDAVFKQFLCHPDTARDFLEIHLPSTLRQICNLNTLRLESGSFIEEDLRPHYSDILWSLETSEGEGYIYVVIEHQSTPDAHMAFRLMRYAMAAMQRHLEAGHKTLPLVVPMLFYHGNRSPYPFSLCWLDEFADPVMARKLYATAFPLVDITVVPDDEIMRHRRVALLELIQKHIRQRDLMGLVEQLVALLVKGYANDTQLQSLFNYMMHTGDAARFNTFIRQVAMRIPQHKEKIMTIADRLRQEGHRNGLQQGKQEGQRLAALRIARSMLNDGFDRDTVLRVTGLAPADLASENH
